B1: mouse chimeric IL-15 (mIL-15 + mIgHG2a chimera) (Fc fusion)
chain: GIHVFILGCVSVGLPKTEANWIDVRYDLEKIESLIQSIHIDTTLYTDSDFHPSCKVTAMNCFLLELQVILHEYSNMTLNETVRNVLYLANSTLSSNKNVAESGCKECEELEEKTFTEFLQSFIRIVQMFINTSGSAKTTAPSVYPLAPVCGDTTGSSVTLGCLVKGYFPEPVTLTWNSGSLSSGVHTFPAVLQSDLYTLSSSVTVTSSTWPSQSITCNVAHPASSTKVDKKIEPRGPTIKPCPPCKCPAPNLLGGPSVFIFPPKIKDVLMISLSPIVTCVVVDVSEDDPDVQISWFVNNVEVHTAQTQTHREDYNSTLRVVSALPIQHQDWMSGKEFKCKVNNKDLPAPIERTISKPKGSVRAPQVYVLPPPEEEMTKKQVTLTCMVTDFMPEDIYVEWTNNGKTELNYKNTEPVLDSDGSYFMYSKLRVEKKNWVERNSYSCSVVHEGLHNHHTTKSFSRTPGK

Tests used:
[1] = biological target: human chimeric IL-15 (huIL-15 + huIgHG2 chimera; IL-2SP-N72DIL-15CDS-K322AIgHg2) (human); experiment: SEC; analytical size-exclusion HPLC, Zorbax Bio Series GF-250 column, PBS mobile phase, 1 ml/min; 20 µl of 1 μg/ml chimeric IL-15; OVA and BSA as standards
[2] = biological target: human chimeric IL-15 (huIL-15 + huIgHG2 chimera; IL-2SP-N72DIL-15CDS-K322AIgHg2) (human); experiment: non-reducing SDS-PAGE; purified chimeric IL-15 loaded on SDS-PAGE under non-reducing or reducing conditions, Coomassie stain, densitometry of dimer vs. monomer
[3] = biological target: the molecule itself; experiment: as above

Row | Molecule | stoichiometry N [1] | stoichiometry N [2] | stoichiometry N [3]
1 | human chimeric IL-15 (huIL-15 + huIgHG2 chimera; IL-2SP-N72DIL-15CDS-K322AIgHg2) (Fc fusion) | 2 | 2 | 
2 | B1 |  |  | 2

Reference: article PMC8092395, “Development of Stable Chimeric IL-15 for Trans-Presentation by the Antigen Presenting Cells” (Frontiers in Immunology, 2021)
